According to article PMC2918618, “Characterization of the TnsD-attTn7 complex that promotes site-specific insertion of Tn7” (Mobile DNA, 2010):
Numbering of substitutions follows the chain as printed.

What was measured:
Experiment in all cases: EMSA; Gel-shift buffer not given (as described in ref. 6); TnsD stored in 500 mM KCl, 50 mM Tris-HCl pH 8.0, 1 mM EDTA, 2 mM DTT, 25% glycerol
TnsD 1-350 = biological target: T1, TnsD 1-350 (Escherichia coli (transposon Tn7), UniProt P13991 1-350); settings: protein: recombinant
T1 sequence: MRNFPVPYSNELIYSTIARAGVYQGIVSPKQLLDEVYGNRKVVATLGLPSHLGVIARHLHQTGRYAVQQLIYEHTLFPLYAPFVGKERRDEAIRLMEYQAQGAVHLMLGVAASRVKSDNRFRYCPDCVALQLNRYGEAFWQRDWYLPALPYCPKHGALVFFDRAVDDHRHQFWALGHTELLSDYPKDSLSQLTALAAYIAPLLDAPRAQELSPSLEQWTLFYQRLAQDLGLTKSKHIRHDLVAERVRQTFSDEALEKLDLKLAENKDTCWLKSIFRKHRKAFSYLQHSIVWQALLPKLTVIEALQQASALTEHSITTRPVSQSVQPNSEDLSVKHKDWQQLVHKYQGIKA

TnsD H155S = biological target: T2, TnsD H155S (Escherichia coli (transposon Tn7), UniProt P13991 1-508, H155S); settings: protein: recombinant; tags: intein-chitin tag, cleaved with DTT
T2 sequence: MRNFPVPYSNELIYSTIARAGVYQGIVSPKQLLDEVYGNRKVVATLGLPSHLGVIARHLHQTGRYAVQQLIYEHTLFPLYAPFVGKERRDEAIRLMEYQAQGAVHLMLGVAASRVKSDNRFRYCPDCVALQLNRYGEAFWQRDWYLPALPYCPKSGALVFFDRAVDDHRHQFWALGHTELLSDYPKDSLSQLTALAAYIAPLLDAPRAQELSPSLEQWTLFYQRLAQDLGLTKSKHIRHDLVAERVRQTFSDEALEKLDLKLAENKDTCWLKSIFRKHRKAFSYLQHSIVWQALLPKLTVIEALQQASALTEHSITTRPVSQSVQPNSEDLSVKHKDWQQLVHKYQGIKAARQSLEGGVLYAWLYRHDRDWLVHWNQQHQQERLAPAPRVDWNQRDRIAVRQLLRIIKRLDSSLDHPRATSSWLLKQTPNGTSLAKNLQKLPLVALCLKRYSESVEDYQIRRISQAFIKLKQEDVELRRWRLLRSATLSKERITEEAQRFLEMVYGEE

TnsD C152S = biological target: T3, TnsD C152S (Escherichia coli (transposon Tn7), UniProt P13991 1-508, C152S); settings: protein: recombinant; tags: intein-chitin tag, cleaved with DTT
T3 sequence: T2 sequence with C152S, S155H

TnsD C127S = biological target: T4, TnsD C127S (Escherichia coli (transposon Tn7), UniProt P13991 1-508, C127S); settings: protein: recombinant; tags: intein-chitin tag, cleaved with DTT
T4 sequence: T2 sequence with C127S, S155H

TnsD C124S = biological target: T5, TnsD C124S (Escherichia coli (transposon Tn7), UniProt P13991 1-508, C124S); settings: protein: recombinant; tags: intein-chitin tag, cleaved with DTT
T5 sequence: T2 sequence with C124S, S155H

B1: attTn7 wt (+23 to +58) (dsDNA)
DNA 1: CCGCGTAACCTGGCAAAATCGGTTACGGTTGAGTAA
DNA 2: TTACTCAACCGTAACCGATTTTGCCAGGTTACGCGG
For B1, the binding result (TnsD 1-350) was “no binding”, the binding signal (TnsD H155S) was 0.05 relative to wt and the binding signal (TnsD C152S) was 0.05 relative to wt. The binding signal (TnsD C127S) was 0.05 relative to wt and the binding signal (TnsD C124S) was 0.05 relative to wt.
